Test results published in article PMC11876737, “Side-by-Side Comparison of the In Vivo Performance of [^212Pb]Pb-DOTAMTATE and Other SSTR2-Targeting Compounds” (Journal of Nuclear Medicine, 2025).
Like-named read-outs stand apart in the source and are kept apart here. Positions of bridges follow the written chain, without caps; N, C: chain ends. Non-standard residues stand in square brackets, D forms with d. Residues, ends and D or L forms follow the SMILES beside them. *: point of attachment. DO3AM = NC(=O)CN1CCN(CC(N)=O)CCN(CC(=O)*)CCN(CC(N)=O)CC1; dPhe(4-NHCONH2) = NC(=O)Nc1ccc(C[C@@H](N)C(=O)O)cc1; Dihydroorotyl(S) = O=C1C[C@@H](C(=O)*)NC(=O)N1; Phe(4-Cl) = N[C@@H](Cc1ccc(Cl)cc1)C(=O)O; Phe(4-NH2) = Nc1ccc(C[C@H](N)C(=O)O)cc1

Legend:
[1] = tested on: SSTR2-overexpressing tumors, AR42J; test: Biodistribution of ^212Pb SSTR2 analogs in AR42J tumor-bearing mice; assay type: in vivo, athymic nude female mice
Procedure: (§1) The background was automatically subtracted from the counts. A standard was also used for decay correction to time of injection or time of collection. The percent injected dose per gram (%ID/g) was calculated for each organ collected.  FIGURE 2. In vivo distribution of ^212Pb-radiolabeled SSTR2 analogs in athymic nude female mice carrying subcutaneous AR42J tumors. […] Tissue uptake is expressed as %ID/g ± SD decay corrected to time of injection (n = 4-5). In our study, we propose to use the integral of the time-activity curve, also known as the AUC, as a surrogate measure for estimating the absorbed dose. We calculated all SSTR2 analogs' AUC for kidneys and tumors including tumor-to-kidney ratios (T/K AUC ratio) (Figs. 3 and 4). We observed distinct AUC patterns and consequently distinct T/K AUC ratios across the different compounds.

[2] = as above; assay type: in vivo, athymic nude female mice; conditions: female, athymic nude, mouse, in vivo, iv, total radioactivity
Procedure: as §1

[3] = ^212Pb chelate RCY after 24 h at room temperature (instant thin-layer chromatography); assay type: physicochemical; conditions: 24 h at RT; 444 MBq/50 μg (27.5 nmol); triplicate ± SD
Procedure: The radioisotope-free compounds were diluted in metal-free water at needed concentrations and were stored at -20°C. ^212Pb was produced using ^224Ra generators (Orano Med LLC). Chelation was performed by incubating 27.5 nmol of peptide per 444 MBq of ^212Pb for 10 min at room temperature in 0.4 M ammonium acetate buffer, with a pH of 6.1. Radiochemical purity, assayed by instant thin-layer chromatography was used to confirm that ^212Pb chelation was greater than 95%. Radiolabeled peptides were spotted onto an instant thin-layer chromatography strip and allowed to migrate in a 22% citrate buffer. The instant thin-layer chromatography strip was then cut in half and counted using a calibrated Perkin Elmer Wizard2 2470 automatic γ-counter with an energy window of 185-250 keV considering ^212Pb major emitted γ-rays (238 keV). Samples were diluted to appropriate activity before injection in a buffer containing ascorbic acid, ethanol, and polysorbate-20. […], and PSC-PEG2-TATE (Fig. 1) were radiolabeled at a specific activity of 444 MBq per 50 μg (or 27.5 nmol) in a chelation buffer containing 5% ethanol, 20 mM ascorbic acid, and 0.02% polysorbate 80. The chelation of ^212Pb appears to occur more slowly with the PSC than with the DOTA and DOTAM chelators. […] The RCY remained above 95% at 24 h for all compounds.

somatostatin receptor 3 = tested on: somatostatin receptor 3; design: method as in PMID 10774879; conditions: cited from earlier work
somatostatin receptor 5 = tested on: somatostatin receptor 5; design: method as in PMID 10774879; conditions: cited from earlier work
SSTR2 = conditions: cited from earlier work
[4] = time-activity curve of %ID/g at 1, 4, 24 h, decay corrected to time of collection

C[C@@H](O)[C@@H]1NC(=O)[C@H](CCCCN)NC(=O)[C@@H](Cc2ccc(NC(N)=O)cc2)NC(=O)[C@H](Cc2ccc(NC(=O)[C@@H]3CC(=O)NC(=O)N3)cc2)NC(=O)[C@H](NC(=O)[C@H](Cc2ccc(Cl)cc2)NC(=O)CN2CCN(CC(N)=O)CCN(CC(N)=O)CCN(CC(N)=O)CC2)CSSC[C@@H](C(=O)N[C@H](Cc2ccc(O)cc2)C(N)=O)NC1=O [[^212Pb]Pb-DOTAM-JR11, DOTAM-p-Cl-Phe-cyclo(D-Cys-Aph(Hor)-D-Aph(Cbm)-Lys-Thr-Cys)D-Tyr-ONH2, metal not drawn] (DO3AM-[Phe(4-Cl)][dC][Phe(4-NH2)](Dihydroorotyl(S))[dPhe(4-NHCONH2)]KTC[dY]-NH2; disulfide 2-7)
AR42J tumor AUC ([1]; mouse, in vivo): 363 ± 75
Kidney AUC ([1]; mouse, in vivo): 274 ± 19
tumor retention ([1]; mouse, in vivo): favorable tumor retention
uptake in healthy tissues such as the stomach, the lungs, and spleen ([1]; mouse, in vivo): higher compared with uptake of the other SSTR2 analogs

C[C@@H](O)[C@H](NC(=O)[C@@H]1CSSC[C@H](NC(=O)[C@@H](Cc2ccccc2)NC(=O)CN2CCN(CC(N)=O)CCN(CC(N)=O)CCN(CC(N)=O)CC2)C(=O)N[C@@H](Cc2ccc(O)cc2)C(=O)N[C@H](Cc2c[nH]c3ccccc23)C(=O)N[C@@H](CCCCN)C(=O)N[C@@H]([C@@H](C)O)C(=O)N1)C(=O)O [[^212Pb]Pb-DOTAMTATE, metal not drawn]
tissue uptake at 4 h [2]: ~50 %ID/g
AR42J tumor AUC ([1]; mouse, in vivo): 583 ± 58
Kidney AUC ([1]; mouse, in vivo): 186 ± 28
uptake in healthy tissues such as the stomach, the lungs, and spleen ([1]; mouse, in vivo): higher compared with uptake of the other SSTR2 analogs

C[C@@H](O)[C@H](NC(=O)[C@@H]1CSSC[C@H](NC(=O)[C@@H](Cc2ccccc2)NC(=O)CN2CCN(CC(=O)O)CCN(CC(=O)O)CCN(CC(=O)O)CC2)C(=O)N[C@@H](Cc2ccc(O)cc2)C(=O)N[C@H](Cc2c[nH]c3ccccc23)C(=O)N[C@@H](CCCCN)C(=O)N[C@@H]([C@@H](C)O)C(=O)N1)C(=O)O [[^212Pb]Pb-DOTATATE, metal not drawn, reference compound]
tissue uptake at 4 h ([2]; 444 kBq, 4 h after injection, i.v., AR42J tumor, read-out: average tumor uptake): ~10 %ID/g
Tumor AUC / Kidney AUC ratio (T/K AUC ratio) ([1]; decay corrected to time of collection): 0.73
AR42J tumor AUC [1, 4]: 122 ± 12
Kidney AUC [1, 4]: 161 ± 21
biodistribution profile / accumulation in healthy tissues ([1]; tumor-bearing female mice): distinctly cleaner
RCY [3]: 98.3% ± 1.2%

C[C@@H](O)[C@H](NC(=O)[C@@H]1CSSC[C@H](NC(=O)[C@@H](Cc2ccccc2)NC(=O)CCOCCOCCNC(=O)CN2CCN(CC(=O)O)CCN(CC(N)=O)CCN(CC(=O)O)CC2)C(=O)N[C@@H](Cc2ccc(O)cc2)C(=O)N[C@H](Cc2c[nH]c3ccccc23)C(=O)N[C@@H](CCCCN)C(=O)N[C@@H]([C@@H](C)O)C(=O)N1)C(=O)O [[^212Pb]Pb-PSC-PEG2-TATE, PSC-amino-PEG2-acid-D-Phe-cyclo(Cys-Tyr-D-Trp-Lys-Thr-Cys)Thr-COOH, metal not drawn]
AR42J tumor AUC ([1]; mouse, in vivo): 274 ± 59
Kidney AUC ([1]; mouse, in vivo): 290 ± 27

C[C@@H](O)[C@H](NC(=O)[C@@H]1CSSC[C@H](NC(=O)[C@@H](Cc2ccccc2)NC(=O)CN2CCN(CC(=O)O)CCN(CC(N)=O)CCN(CC(=O)O)CC2)C(=O)N[C@@H](Cc2ccc(O)cc2)C(=O)N[C@H](Cc2c[nH]c3ccccc23)C(=O)N[C@@H](CCCCN)C(=O)N[C@@H]([C@@H](C)O)C(=O)N1)C(=O)O [[^212Pb]Pb-PSC-TATE, PSC-D-Phe-cyclo(Cys-Tyr-D-Trp-Lys-Thr-Cys)Thr-COOH, metal not drawn]
AR42J tumor AUC ([1]; mouse, in vivo): 177 ± 22
Kidney AUC ([1]; mouse, in vivo): 156 ± 24

C[C@@H](O)[C@@H]1NC(=O)[C@H](CCCCN)NC(=O)[C@@H](Cc2c[nH]c3ccccc23)NC(=O)[C@H](Cc2ccc(O)cc2)NC(=O)[C@@H](NC(=O)[C@@H](Cc2ccccc2)NC(=O)CCOCCOCCNC(=O)CN2CCN(CC(=O)O)CCN(CC(N)=O)CCN(CC(=O)O)CC2)CSSC[C@@H](C(=O)N[C@H](CO)[C@@H](C)O)NC1=O [^212Pb-PSC-PEG2-TOC, PSC-amino-PEG2-acid-D-Phe-cyclo(Cys-Tyr-D-Trp-Lys-Thr-Cys)Thr-OH, metal not drawn, reference compound]
AR42J tumor AUC ([1]; mouse, in vivo): 290 ± 45
Kidney AUC ([1]; mouse, in vivo): 320 ± 51

C[C@@H](O)[C@@H]1NC(=O)[C@H](CCCCN)NC(=O)[C@@H](Cc2c[nH]c3ccccc23)NC(=O)[C@H](Cc2ccc(O)cc2)NC(=O)[C@@H](NC(=O)[C@@H](Cc2ccccc2)NC(=O)CN2CCN(CC(=O)O)CCN(CC(N)=O)CCN(CC(=O)O)CC2)CSSC[C@@H](C(=O)N[C@H](CO)[C@@H](C)O)NC1=O [^212Pb-PSC-TOC, PSC-D-Phe-cyclo(Cys-Tyr-D-Trp-Lys-Thr-Cys)Thr-OH, metal not drawn]
AR42J tumor AUC ([1]; mouse, in vivo): 353 ± 52
Kidney AUC ([1]; mouse, in vivo): 377 ± 34

octreotate
affinity for somatostatin receptor 3 (somatostatin receptor 3): minimal binding
affinity for somatostatin receptor 5 (somatostatin receptor 5): moderate affinity
binding to SSTR2 relative to TOC (SSTR2): approximately 10 fold

octreotide [TOC]
affinity for somatostatin receptor 3 (somatostatin receptor 3): high affinity
affinity for somatostatin receptor 5 (somatostatin receptor 5): high affinity
affinity for SSTR2 (SSTR2): high affinity
